The values that follow come from article PMC4114212 (Science signaling, 2012).

Read-outs that look alike come from different tables or passages of the source.

Series [1] deals with the molecule itself. Description: crystal structure.
Series [2] addresses T1, TRAF domain of mouse TRAF3 (residues 376 through the C terminus), wild type (mouse, UniProt Q60803 376-567).
T1 sequence (looked up): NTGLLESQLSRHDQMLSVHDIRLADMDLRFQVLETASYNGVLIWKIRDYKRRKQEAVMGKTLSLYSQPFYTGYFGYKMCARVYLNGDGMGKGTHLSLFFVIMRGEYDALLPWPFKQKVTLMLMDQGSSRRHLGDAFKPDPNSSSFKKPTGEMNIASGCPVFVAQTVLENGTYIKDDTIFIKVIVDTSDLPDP
In words: pull-down.

Series [3] concerns the molecule itself. In words: crystal structure. The source holds these as a separate data set.
The target in series [4] is T2, Cardif peptide (residues 138 to 158) used for cocrystallization with TRAF3.
T2 peptide: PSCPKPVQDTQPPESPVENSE
Description: crystal structure.

B1: TRAF domain of TRAF5, crystallised construct (residues 381 through the C-terminal end) (domain or fragment, mouse, UniProt P70191 381-558, looked up)
chain: NIHKAQLNKNEERFKQLEGACYSGKLIWKVTDYRVKKREAVEGHTVSVFSQPFYTSRCGYRLCARAYLNGDGSGKGTHLSLYFVVMRGEFDSLLQWPFRQRVTLMLLDQSGKKNHIVETFKADPNSSSFKRPDGEMNIASGCPRFVSHSTLENSKNTYIKDDTLFLKVAVDLTDLEDL
B1: in “crystal structure [1]”, the “stoichiometry N” value worked out at 3.

PSCPKPVQDTQPPESP [GST-tagged Cardif peptide, residues 138 to 153 (encompasses T2BM)]: in series [2], the binding result is “binds”.

B2: recombinant TRAF domain of TRAF3 (residues 376 to 565), shortened by trypsin for crystallisation (domain or fragment, mouse, UniProt Q60803 376-565, looked up)
chain: NTGLLESQLSRHDQMLSVHDIRLADMDLRFQVLETASYNGVLIWKIRDYKRRKQEAVMGKTLSLYSQPFYTGYFGYKMCARVYLNGDGMGKGTHLSLFFVIMRGEYDALLPWPFKQKVTLMLMDQGSSRRHLGDAFKPDPNSSSFKKPTGEMNIASGCPVFVAQTVLENGTYIKDDTIFIKVIVDTSDLP
Turning to B2, the “stoichiometry N” value came to 3 in the series “crystal structure [3]” and 1 in series [4].
